Among the data in paper PMC6511843 are binding signal (% of WT ELK-1), binding signal (% (reference)) and binding signal (fold less than unmodified ELK-1) values, retold here.

In series [1] the test system is ELK-1(K70R);coreSRF. Briefly: EMSA. To be noted: not given in material (EMSA as in ref 29; southwestern as in ref 34, modified). Background: In EMSA bound probe runs differently from free probe, usually more slowly.
Series [2] has as its system HA.ELK-1;coreSRF. The series is described as follows: EMSA. Particulars: not given in material (EMSA as in ref 29; southwestern as in ref 34, modified).
Series [3] relates to ELK-1(K35R);coreSRF. Briefly: EMSA. Particulars: not given in material (EMSA as in ref 29; southwestern as in ref 34, modified).
The test system of series [4] is ELK-mUBQ. Briefly: southwestern. Particulars: renatured on nitrocellulose; not given in material (EMSA as in ref 29; southwestern as in ref 34, modified).
For series [5], the system named is HA.ELK-1. The series is described as follows: EMSA. Particulars: not given in material (EMSA as in ref 29; southwestern as in ref 34, modified).

As for CFOS SRE, the binding signal (% of WT ELK-1) in series [1] and in series [3] was 80 in each case. In series [2], this substance yielded a binding signal (% (reference)) of 100.
For E74 site, the binding signal (fold less than unmodified ELK-1) in series [4] is 4. This substance also showed a binding signal (% (reference)) in series [5] of 100.
